A short description of this series: label from the status in PepcDB records.
For “MFYKEENFKKTEIGEIPEDWEIVELKDVCKKIKAGGTPKTSVEEYYKNGTIPFVKIEDITNSNKYLTNTKIKITEEGLNNSNAWIVPKNSVLFAMYGSIGETAINKIEVATNQAILGIIPKDNILESEFLYYILAKNKNYYSKLGMQTTQKNLNAQIVKSFKIPLPPLEEQKQIAKILTKIDEGIEIIEKSINKLERIKKGLMHKLLTKGIGHSRFKKSEIGEIPEDWEVFEIKDIFEVKTGTTPSTKKSEYWENGEINWITPLDLSRLNEKIYIGSSERKVTKIALEKCNLNLIPKGSIIISTRAPVGYVAVLTVESTFNQGCKGLFQKNNDSVNTEFYAYYLKFKKNLLENLSGGSTFKELSKSMLENFKIPLPPLEEQKQIAKILSSVDKSIELKKQKKEKLQRMKKKIMELLLTGKVRVKT”, the protein production result is “not failed”.
For “MFYTIEELVQQADRDYQGNIAELMIATETELSGRDRSEILELMTRNLEVMKDSVQTGLSPEKSPTGLTGGDAAKLDAYIKRGKTLADSAVLGAARNAMAVNESNAKMGLVCATPTAGSAGCLPAVLTVAIEKLGLNESQQLDFLFTAGAFGLVIANKASISGAEGGCQAEVGSASAMAAAAITMAAGGTPFQASQAICFVLKNMLGLICDPVAGLVEVPCVKRNAMGASFALVAADMALAGITSAIPVDQVVDAMYQVGSAMPTAFRETAEGGLAATPKGKALAKEIFG” the value was “not failed”; for “MGAASCEDEELEFKLVFGEEKEAPPLGAGGLGEELDSEDAPPCCRLALGEPPPYGAAPIGIPRPPPPRPGMHSPPPRPAPSPGTWESQPARSVRLGGPGGGAGGAGGGRVLECPSIRITSISPTPEPPAALEDNPDAWGDGSPRDYPPPEGFGGYREAGAQGGGAFFSPSPGSSSLSSWSFFSDASDEAALYAACDEVESELNEAASRFGLGSPLPSPRASPRPWTPEDPWSLYGPSPGGRGPEDSWLLLSAPGPTPASPRPASPCGKRRYSSSGTPSSASPALSRRGSLGEEGSEPPPPPPLPLARDPGSPGPFDYVGAPPAESIPQKTRRTSSEQAVALPRSEEPASCNGKLPLGAEESVAPPGGSRKEVAGMDYLAVPSPLAWSKARIGGHSPIFRTSALPPLDWPLPSQYEQLELRIEVQPRAHHRAHYETEGSRGAVKAAPGGHPVVKLLGYSEKPLTLQMFIGTADERNLRPHAFYQVHRITGKMVATASYEAVVSGTKVLEMTLLPENNMAANIDCAGILKLRNSDIELRKGETDIGRKNTRVRLVFRVHVPQGGGKVVSVQAASVPIECSQRSAQELPQVEAYSPSACSVRGGEELVLTGSNFLPDSKVVFIERGPDGKLQWEEEATVNRLQSNEVTLTLTVPEYSNKRVSRPVQVYFYVSNGRRKRSPTQSFRFLPVICKEEPLPDSSLRGFPSASATPFGTDMDFSPPRPPYPSYPHEDPACETPYLSEGFGYGMPPLYPQTGPPPSYRPGLRMFPETRGTT”, “not failed”; for “MGAATRVAPMTAAASSTKAWLMAARPQTLPAGAAPVIVGTGLAVYHGVFAPLPALFALFGALLLQIGTNFANDYYDAVRGADTEDRDGFTRVTAGGLIEPAAVKRAMYATFGLSMVIGLYLVAVGGVPILVVGLASIVAGITYSGGPLPYGYRGLGDLFVFVFFGLVAVAGTYYVQAAAHGGWFPLWIPEGTLPAAAVVAGLPAAGFSTAILVVNNIRDRETDAEAGKHTLAVILGYRLSRIEWSLMAGLGYAIPVVFWLDGYPATVLLPLVTAPLAIAIGRTVWNRTDGEALNPALQRTGKLLFAHSVCFALGFAAPAVI”, “failed”.
As to “MGALLPRGQASRPRTRHGRSPQNDRRQEARDVTGRHLAMVQRPGKMARWVLCCECLRRPMDLTLRLATALLTASLLLPLRPAQAQLAGHGGPVRAIAVSSDGKTVLSGSFDTAAIRWSLATESAEQVLRFHSGAVNAAAFLGDGRMATAGADGQIAIWTAGGLQPDQVLEGHTGPIVGLVVSPDTSKLASASWDHTVRISSLSDGGTRVLQGHSQSVNGVAFAPDGKSLVSVGYDLTVRIWPLAGGSPEIVVMPAPLNAVAISPDGEIVTGAADGKLRMMTADGKENGEVMAGARPIVALAISQDGALIATGAIDGTVAIVDRKARSVMRTLAGLGAPVWSVAFLPDGATLLTGGADGKIRRWNALTGAAIGSNVLGTPADPLAAYVGDHGAEMFRACVACHTLSENEVQRAGPTLAGLFGRKIASLPGYRFTDALKAMDIVWTPETVSKLFEIGPNAYTPGTKMPEQRIGSAEDRRALTDFLARATSK”, the protein production result is on record as “failed”.
Take “MGALRGRWAEEEALRFLLGKGYRLLWRNRRTPFGEVDLFMEKDGVYVVVEVKQRASARFGAPLEAITPGKVRRLLQSARFLLGRDDLPVRLEAVLVHGTPKDFRLEHLVLEL”: the protein production entry is “failed”.
For the sequence “MGDPFGGRFGGFRGSLFGGRDPFDDPFFSRPFEDLLEPSNTFSSGASFSNAHKNNGGRGLTIEELPSDEEVEERKDIGIDDQEHASSVNKPSVEHPEDDSDAERKIQNVNQRSDFNRREGTQSRANTFRHHISKVTYGGIHGAYYTSTRTRRKDGDGMVVEESKEADKTTGEATHRISRGINDKVIDYTVDGHSVTRKLNSSGGVESTQTLHNLDEGPAESTQPYHNLKFFERKLAGF”, the protein production entry is reported as “failed”.
Consider “MGDVVEMTSELGFKYSILASGSTGNSFYLETPEKKILVDAGLSGKKITSLLAEIDRDPSDLDAILVTHEHKDHIHGVGVLARKYGMDIYANEKTWQIMDSKNMLGKVDNSQKHIFSRGKLLTFGDIDIESFGVSHDAINPQFYRFMKDGKSFVMLTDTGYVSDRMAGLIENADGYLIESNHDIEILRAGSYPWSTKQRILSDQGHLCNEDGADAMIRTIGNKTKKIYLGHLSKENNIKELAYMTMENQLARADFGVGTDFKIFVTSPDTATPLTDILEHHHHHH”, for which the protein production entry is “not failed”.
As to “MGDWSKLPEELLGLIALRLYSVIELIRFRSICKSWRSSASGVNKNHSLSSPLIYFKPLQIILARAQANGQILSKYHGTVLSRATFFRVTLASSPDQGWLIKSDTDLKYRNFHLLNCLSRKALGRSRKLISLSEFIVSEIQESYAVVGRRTRETASEFKRVFLVRVQGGDHRVLVIGIDGKIRFWKGGIWNGIKKQVAQFSDFVLDEGLTYAVDTKGIMWWISSAYDIIRYGTKLHENITNGSCGEKRFVRCRGELYIVDRLIDENLLKRKADSYDDNAIVHFRNADYTNADLWEDGNGNDDFFAAQAHRFIHVLHDNLGNVSCKPFERDPPKTIGFKVYKNDEELLKWVEVKSLGDKAIVIATDACFSVSAHEFYGCLPNSIYFTDKKEEEVKVFKLDDGSITTMSESEQSCFQMFVPSFL”, the protein production entry is “not failed”.
For the sequence “MGEDRRSLRVDYDDNFLRNNICSLKVSFIKQQGGAEGVKRLYADLGLALVALIWGSTFPVVKIALDSMSPFAFNTVRFFIACLFFLPFLKGWDFKDGFKIGIASFLGYTFQTVGLDYTTATNAGFITSTYVVLAPIISWLVYKDVFDKRDVSGVLLAFVGFYFLSGYSGFNIGDILMLFCALFFGAEIAMISHYSRLSNPTMLAFWQSFAIFILSAPFAVFTTTKFEINTTVILCLLITAFFATFVAKMLQNWLQSYTKSSDAAVILSLEGVFAHLFSVAVLAEILTPVQYFGAFLILLAVIIVSLRV”, the protein production entry was “failed”.
For the sequence “MGEEAALDSFVKLEETLGEDEPCTARIIAPSSRAVLQSPTPPLPLKPHFLTNFPKYWSRPYLQAVPLHCQWERIPELVKQLSAKLIANDDMAELLLGESKLEQHLKEKPLRQGASPRGPRPQLTEVRKHLTAALDRGNLKSEFLQESNLVMAKLNYVEGDYKEALNIYARVGLDDLPLMAVPPYRLRMIAEAYATKGLCLEKLPVSSSTSNLHVDREQDVITCYEKAGDIALLYLQEIERVILTNIQNRSPKPGPAPHDQELGFFLETGLQRAHVLYFKNGNLTRGVGRFRELLRAVETRTTQNLRMTIARQLAEILLRGMCEQSYWNPLEEPPCQSPLDDPLRKGANTKTYTLPRRARVYSGENIFCPQENTEEALLLLLISESMANRDAVLSRIPEHKSDRLISLQSASVVYDLLTIALGRRGQYEMLSECLERAMKFAFEEFHLWYQFALSLMAAGKSARAVKVLKECIRLKPDDATIPLLAAKLCVGSLHWLEEAEKFAKTVVDVGEKTSEFKAKGYLALGLTYSLQATDASLRGMQEVLQRKALLALQRAHSLSPTDHQAAFYLALQLAISRQIPEALGYVRQALQLQGDDANSLHLLALLLSAQKHHHDALNIIDMALSEYPENFILLFSKVKLESLCRGPDEALLTCKHMLQIWKSCYNLTNPSDSGRGSSLLDRTIADRRQLNTITLPDFSDPETGSVHATSVAASRVEQALSEVASSLQSSAPKQGPLHPWMTLAQIWLHAAEVYIGIGKPAEATACTQEAANLFPMSHNVLYMRGQVAELRGNFDEARRWYEEALSISPTHVKSMQRLALVLHQLGRYSLAEKILRDAVQVNSTAHEVWNGLGEVLQAQGNDAAATECFLTALELEASSPAVPFTVIPRVL”, the protein production entry is “failed”.
For “MGEEEAVAEENGGLKVESGEQKSSWPTMRFDVSPYRTHHFSKQFRTARNPNNFLKGLKWSPDGSCFLASSEDNTLSLFHLPQDGGDSNGYGVPVPEEDSYGASLLVNEGESVYDFCWYPYMSVSDPLTCVFATSTRDHPIHLWDSTSGELRCTYRAYDAMDEITAAFSVGFNPDGTKIFAGYNSSIRVFDLHRPGRDFRQYSTLQKNKEGQAGILSTLAFSPTNSGMLAVGSYGQTTGIYREDNMELLYVLHGQEGGVTHVQFSKDGNYLYTGGRKDPYILCWDIRKSVEIVYKLYRATENTNQRVFFDIEPCGRHLGTGGQDGLVHMYDLQTGNWVSGYQAASDTVNAFSFHPYLPMAATSSGHRRFAIPDDDDGEDKNELQLKADENCVSLWSFYVEDNTYDENNGVASESHLQNVTEEIVLT” the value was “failed”.
As for “MGEGGQRATPSVTKIVGGEMAARVRAFDWSKTPLGPREDWSPALRLATDIVLASNFPMALRWGPELVLIYNDGYAPALHERHPSALGQSFYDTTPEFQAALRELHQDILTGTSGGFAFERLPLKVLKNGVLEAAYFTVNYSPVPDETAPNGIGGVLVAAVEISQSVKAEQTLRATQERYQ”, the protein production entry is on record as “failed”.
Turning to “MGELIYGEVKKQTKDGFIIDLGDNAEAYLAREEMIAKEILRPKQRMNAILYSVNREGRGAQLLLSRARPEMLMALMKKEIPLEHHHHHH”, the protein production entry is on record as “failed”.
On to “MGENVLICLCGSVNSINISHYIIELKSKFDEVNVIASTNGRKFINGEILKQFCDNYYDEFEDPFLNHVDIANKHDKIIILPATSNTINKIANGICDNLLLTICHTAFEKLSIFPNMNLRMWENPVTQNNIRLLKDYGVSIYPANISESYELASKTFKKNVVAPEPYKVLEFI”, for which the protein production result was “not failed”.
“MGERGVEMRLRIRFESAECEVELYEEWAPETVRAIADALPIKSTANRWGDEIYFTTQVAVEKEENSKDVVELGDVAYWIPGKAICLFFGKTPISDDKIRPASAVNVIGRIVNSMEGLKGVADGESVVVERA”: the protein production result was “not failed”.
For “MGERIALATREGAPLAAYHAPPLEARRGGIVMLHAIWGVTPHLRQLSDSLAEQGYEVMLPSLMDAADAAFPVEDTTPSILDARMAMGERTGWGASTLPRVQACIDALNGPVYAMGFCYGGTTAWLAACRCEGLSAVSAFYGGDIAAYRDETPKVPTILHFGKTDTMIPLSAVDAVRDRHPDLPVYLYDAGHAFVAPSGHHPDSARLALLRTLQLFQR” the value was “failed”.
In the case of “MGESGLTNEIDELHEEVTAVSAPGVKPPAQAGRRNIWLKVLISATAFYILLLVALLVTGNPNLFPSLVMVGNFTVPVAYVAFLYERKNFSRLKMPIVSLAFLYGGLVGIIATSFIGPLFITQFNPGDILAVGLVEEFAKILGVVVIARRRRHVLEMDGLILGAAVGMGFAALESTGYAFTAFLISNGSISAVLEVTLFRGLLAPLGHGTWTAILASVLFRESRDCCFRVNLRVIGAYLLVSILHAMWNGLSLVLAPFTGLGLGAIITWALVGFIGLYVLWRRWREAVRLKPVLLPERENV”, the protein production result is given as “failed”.
As for “MGETVVRDAVTIGKPAEQLYAVWRDLPGLPLLMTHLRSVEVLDDKRSRWTVEAPAPLGTVSWEAELTADEPGKRIAWRSLPGARIENSGEVLFRPAPGARGTEVVVRLTYRPPGGSAGAVIARMFNQEPSQQLRDDLMRFKREQELGLEHHHHHH”, the protein production entry is “not failed”.

The values above are taken from a protein production outcome set (Wang et al. 2014).
